Laboratory results reported in patent US20230218738A1 (Pfizer, published 2023).
Numbering of substitutions follows the chain as printed.

T1: RSV F protein mutant pXCS851 (RSV A2, UniProt P03420 26-109)
T1 chain 1: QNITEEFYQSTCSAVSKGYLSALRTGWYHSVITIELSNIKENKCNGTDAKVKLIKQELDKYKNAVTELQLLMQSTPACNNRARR
T1 chain 2: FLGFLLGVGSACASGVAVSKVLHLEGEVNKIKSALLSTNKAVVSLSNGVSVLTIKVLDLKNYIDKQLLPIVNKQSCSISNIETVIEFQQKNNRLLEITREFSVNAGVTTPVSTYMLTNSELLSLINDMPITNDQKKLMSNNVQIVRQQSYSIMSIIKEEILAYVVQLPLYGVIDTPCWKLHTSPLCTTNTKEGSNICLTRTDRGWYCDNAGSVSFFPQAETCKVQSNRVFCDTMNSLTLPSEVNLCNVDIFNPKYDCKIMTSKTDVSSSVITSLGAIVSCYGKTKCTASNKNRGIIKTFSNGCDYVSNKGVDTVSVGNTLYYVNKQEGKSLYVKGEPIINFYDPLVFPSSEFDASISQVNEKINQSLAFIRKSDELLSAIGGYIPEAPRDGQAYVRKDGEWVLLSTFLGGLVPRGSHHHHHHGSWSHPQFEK

T2: RSV F protein mutant pXCS774 (RSV A2, UniProt P03420 26-109)
T2 chain 1: T1 chain 1
T2 chain 2: T1 chain 2 with I54S, E351Q, D353S

T3: RSV F protein mutant pXCS752 (RSV A2, UniProt P03420 26-109)
T3 chain 1: T1 chain 1
T3 chain 2: T1 chain 2 with I54S, S350D

B1: AM22 (antibody, V domains shown)
VH: QVQLVQSGAEVKKPGATVKVSCKISGHTLIKLSIHWVRQAPGKGLEWMGGYEGEVDEIFYAQKFQHRLTVIADTATDTVYMELGRLTSDDTAVYFCGTLGVTVTEAGLGIDDYWGQGTLVTVSS
VL: EIVLTQSPGTLSLSPGERATLSCRASQIVSRNHLAWYQQKPGQAPRLLIFGASSRATGIPVRFSGSGSGTDFTLTINGLAPEDFAVYYCLSSDSSIFTFGPGTKVDFK
B2: MPE8 (antibody, V domains shown)
VH: EVQLVESGGGLVKPGGSLRLSCAASGFTFSSYSMNWVRQAPGKGLEWVSSISASSSYSDYADSAKGRFTISRDNAKTSLFLQMNSLRAEDTAIYFCARARATGYSSITPYFDIWGQGTLVTVSS
VL: QSVVTQTPSVSGAPGQRVTISCTGSSSNIGAGYDVHWYQQLPGTAPKLLIYDNNNRPSGVPDRFSASKSGTSASLAITGLQAEDEADYYCQSYDRNLSGVFGTGTKVTVL
notes: also called MPEG

Key:
Assay in all cases: BLI (Octet), F on anti-HIS tip, 20 nM mAb
[1] = target: RSV F protein mutant pXCS897 (RSV A2, UniProt P03420 26-109)
[2] = target: T1, RSV F protein mutant pXCS851
[3] = target: RSV F protein mutant pXCS877 (RSV A2, UniProt P03420 26-109)
[4] = target: RSV F protein mutant pXCS809 (RSV A2, UniProt P03420 26-109)
[5] = target: RSV F protein mutant pXCS780 (RSV A2, UniProt P03420 26-109)
[6] = target: T2, RSV F protein mutant pXCS774
[7] = target: RSV F protein mutant pXCS878 (RSV A2, UniProt P03420 26-109)
[8] = target: RSV F protein mutant pXCS854 (RSV A2, UniProt P03420 26-109)
DS-Cav1 = DS-Cav1 (UniProt P03420 26-513)
[9] = target: RSV F protein mutant pXCS875 (RSV A2, UniProt P03420 26-109)
[10] = target: RSV F protein mutant pXCS804 (RSV A2, UniProt P03420 26-109)
[11] = target: RSV F protein mutant pXCS873 (RSV A2, UniProt P03420 26-109)
[12] = target: T3, RSV F protein mutant pXCS752
[13] = target: RSV F protein mutant pXCS811 (RSV A2, UniProt P03420 26-109)
[14] = target: RSV F protein mutant pXCS898 (RSV A2, UniProt P03420 26-109)
[15] = target: RSV F protein mutant pXCS876 (RSV A2, UniProt P03420 26-109)
[16] = target: RSV F protein mutant pXCS776 (RSV A2, UniProt P03420 26-109)

Binder | Response (nm shift) [1] [nm] | Response (nm shift) [2] [nm] | Response (nm shift) [3] [nm] | Response (nm shift) [4] [nm] | Response (nm shift) [5] [nm] | Response (nm shift) [6] [nm] | Response (nm shift) [7] [nm] | Response (nm shift) [8] [nm] | Response (nm shift) (DS-Cav1) [nm] | Response (nm shift) [9] [nm] | Response (nm shift) [10] [nm] | Response (nm shift) [11] [nm] | Response (nm shift) [12] [nm] | Response (nm shift) [13] [nm] | Response (nm shift) [14] [nm] | Response (nm shift) [15] [nm] | Response (nm shift) [16] [nm]
B1 | 0.406 | 0.508 | 0.213 | 0.185 | 0.29 | 0.34 | 0.324 | 0.453 | 0.469 | 0.205 | 0.267 | 0.192 | 0.234 | 0.322 | 0.416 | 0.268 | 
B2 |  | 1.02 |  |  | 0.608 | 0.795 |  | 0.886 |  |  |  |  | 0.703 |  |  |  | 0.127
